The text below walks through data of doi:10.1101/2020.04.07.028951 (bioRxiv, 2020).

The target of data set [1] is dhPPaseΔCDC, separate catalytic part of D. hafniense CBS-PPase (Desulfitobacterium hafniense). As to the kind of experiment: cross-linking.
Data set [2] has the same target. The data set can be described thus: enzyme activity after dilution.
Data set [3] shares this target. As to the kind of experiment: AUC.
Data set [4] has as its target Eggerthella lenta CBS-PPase (elPPase) (Eggerthella lenta). The data set can be described thus: AUC.
The target in data set [5] is Ethanoligenens harbinense CBS-PPase (ehPPase) (Ethanoligenens harbinense). The data set can be described thus: cross-linking.
The target is the same in data set [6]. As to the kind of experiment: AUC.
Data set [7] concerns the target Desulfitobacterium hafniense CBS-PPase (dhPPase), full-size (Desulfitobacterium hafniense). As to the kind of experiment: cross-linking.
For data set [8] the target is unchanged. As to the kind of experiment: enzyme activity after dilution.
The target is the same in data set [9]. As to the kind of experiment: AUC.
Data set [10] addresses Clostridium novyi CBS-PPase (cnPPase) (Clostridium novyi). The data set can be described thus: cross-linking.
For data set [11] the target is unchanged. The data set can be described thus: AUC.
Data set [12] concerns the target dhCDC, separate regulatory part of dhPPase (residues 63-306) (Desulfitobacterium hafniense). As to the kind of experiment: cross-linking.
Data set [13] has the same target. The data set can be described thus: AUC.
The target is the same in data set [14]. The data set can be described thus: AUC. The source holds these as a separate data set.
The data set “cross-linking” deals with the molecule itself. As to the kind of experiment: cross-linking.

Regarding “dhPPaseΔCDC, separate catalytic part of D. hafniense CBS-PPase (enzyme)”, in [1], the stoichiometry N was found to be 2. In [2], this molecule registered a dissociation rate constant (koff) of 0.04 s⁻¹ and a percent dimeric at 5.8 µM of 37%. The molecule also displayed a stoichiometry N in data set [3] of 2.
With “Eggerthella lenta CBS-PPase (elPPase) (enzyme)”, the stoichiometry N in data set [4] was determined as 4.
As to “Ethanoligenens harbinense CBS-PPase (ehPPase) (enzyme)”, the stoichiometry N was determined as 2 in data set [5] and 4 in data set [6].
Molecule “Desulfitobacterium hafniense CBS-PPase (dhPPase), full-size (enzyme)” gave a stoichiometry N in data set [7] of 4. In [8], this molecule came in with a percent dissociated at 3 µM of 10% and a percent tetrameric at 1 µM of 79%. In data set [9], this molecule registered a stoichiometry N of 4.
Regarding “Clostridium novyi CBS-PPase (cnPPase) (enzyme)”, the stoichiometry N in data set [10] and in [11] was 4 in each case.
As to “dhCDC, separate regulatory part of dhPPase (residues 63-306) (domain or fragment)”, the stoichiometry N in [12], in data set [13] and in data set [14] was 2 in each case.

B1: Clostridium perfringens CBS-PPase (cpPPase) (enzyme)
chain: MKDVIYITGHKNPDSDSICAALAYAEFKNKTQDTPAIPVRLGNVSQETQYILDYFGVEAPQFLETVKLKVEDLEMDKIAPLAPEVSLKMAWNIMRDKNLKSIPVADGNNHLLGMLSTSNITATYMDIWDSNILAKSATSLDNILDTLSAEAQNINEERKVFPGKVVVAAMQAESLKEFISEGDIAIAGDRAEIQAELIELKVSLLIVTGGHTPSKEIIELAKKNNITVITTPHDSFTASRLIVQSLPVDYVMTKDNLVAVSTDDLVEDVKVTMSETRYSNYPVIDENNKVVGSIARFHLISTHKKKVIQVDHNERGQSVHGLEDAEVLEIIDHHRVADIQTGNPIYFRNEPLGSTSTIVAKRFFENGIRPSREAAGLLCGAIISDTLLFKSPTCTPQDVKMCRKLAEIAGIVPETFAKEMFKAGTSLKGKSIEEIFNADFKPFTIEGVKVGVAQVNTMDIEGFMPLKGEMLDYMNQKAESMGLEMIMLLLTDIINEGSQILVAGRSPEIAEEAFKVKLEDSTTFLPGVLSRKKQVVPPLTQIITTRVSK
For the molecule B1, the “stoichiometry N” value in the data set “cross-linking” is 4.

The term stoichiometry N denotes the number of molecules, sites or subunits per partner or assembly. As usually defined, the koff is a measure of how fast the partners let go of each other.
